This is an account of results in article PMC10607743, “An Enzymatic Strategy for the Selective Methylation of High-Value-Added Tetrahydroprotoberberine Alkaloids” (International Journal of Molecular Sciences, 2023).

Series [1] relates to Oc1cc2c(cc1O)C1Cc3ccc(O)c(O)c3CN1CC2. Briefly: purified protein. The note with it: 100 mM Tris-HCl, 37 °C, substrate 50-500 μM, methyl donor SAM (concentration and pH not given).
Series [2] deals with T1, PsSOMT (Papaver somniferum, UniProt I3PLQ7).
T1 construct: gene SOMT3
T1 sequence (I3PLQ7 whole entry): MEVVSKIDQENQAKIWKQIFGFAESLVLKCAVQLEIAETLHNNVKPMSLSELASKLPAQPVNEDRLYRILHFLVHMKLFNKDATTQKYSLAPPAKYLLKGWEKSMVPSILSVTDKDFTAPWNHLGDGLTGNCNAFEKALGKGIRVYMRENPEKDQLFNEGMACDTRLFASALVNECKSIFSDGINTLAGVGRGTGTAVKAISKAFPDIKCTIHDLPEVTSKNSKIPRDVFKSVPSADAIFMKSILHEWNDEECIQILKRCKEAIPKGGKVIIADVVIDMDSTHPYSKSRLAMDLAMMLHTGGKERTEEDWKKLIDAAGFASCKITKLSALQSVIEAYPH
The note with it: 100 mM Tris-HCl, 37 °C, substrate 50-500 μM; methyl donor SAM (concentration and pH not given).

The Km is the concentration of substrate that gives half-maximal velocity. One may read the Vmax as the top rate of the reaction or transport when substrate is in excess. As usually defined, the kcat is the maximal rate divided by the concentration of active sites. As usually defined, the kcat/Km is the second-order rate constant that governs catalysis at low substrate concentration.

Take Cj4’OMT (Coptis japonica): in series [1], the Km came to 83.50 ± 19.72 µM, the Vmax came to 1.09 µmol/min/mg, the kcat amounted to 1.09 ± 0.08 s⁻¹ and the kcat/Km is 13000 M⁻¹ s⁻¹.
For `Oc1cc2c(cc1O)C1Cc3ccc(O)c(O)c3CN1CC2` (centres unmarked) [2,3,9,10-tetrahydroxyberbine], the Michaelis constant (Km) in series [2] was 53.8 ± 12 µM.
